Results from FireProtDB (doi:10.1016/j.bpc.2007.01.002).

Conditions: Equus caballus, Thermal, reversible: Yes
[1] = pH 3.8, DSC, Sodium acetate 50 mM, transition: 3
[2] = pH 4.1, DSC, Sodium acetate 50 mM
[3] = pH 4.1, DSC, Sodium acetate 50 mM, transition: 3
[4] = pH 4.5, DSC, Sodium acetate 50 mM
[5] = pH 5, DSC, Sodium acetate 50 mM
[6] = pH 5, DSC, Sodium acetate 50 mM, transition: 3

Cytochrome c wild type, P00004, sequence (P00004 whole entry): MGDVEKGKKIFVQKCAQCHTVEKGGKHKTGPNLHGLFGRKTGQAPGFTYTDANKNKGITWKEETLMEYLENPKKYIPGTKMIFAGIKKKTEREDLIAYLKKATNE

Cytochrome c wild type, P00004
Tm (pH 2.9, IATC, KCl 20 mM): 40 °C
unfolding enthalpy (calorimetric) (pH 2.9, IATC, KCl 20 mM): 68.8 kcal/mol
Tm [1]: 68 °C
unfolding enthalpy (calorimetric) [1]: 33.7 kcal/mol
Tm [2]: 70 °C
heat capacity change of unfolding [2]: 1.34 kcal/mol/K
unfolding enthalpy (calorimetric) [2]: 112 kcal/mol
Tm [3]: 69 °C
unfolding enthalpy (calorimetric) [3]: 33.7 kcal/mol
Tm [4]: 74.1 °C
heat capacity change of unfolding [4]: 1.51 kcal/mol/K
unfolding enthalpy (calorimetric) [4]: 119 kcal/mol
Tm [5]: 76.2 °C
heat capacity change of unfolding [5]: 1.39 kcal/mol/K
unfolding enthalpy (calorimetric) [5]: 124 kcal/mol
Tm [6]: 73 °C
unfolding enthalpy (calorimetric) [6]: 37.5 kcal/mol
